Among the data in the supplement of paper PMC12042874 are amyloid nucleation score values, retold here.

The series in a line: amyloid nucleation score (Sup35N fusion, yeast selection) (log enrichment); library NNK2; higher = more nucleation; inactive = no reads after selection. An outline of the steps: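 Sup35N fusions to peptides of 20 random codons were expressed in psi-negative yeast, induced 24 hours with 100 μM copper sulfate, and grown 7 days at 30°C on medium lacking adenine and uracil. Input and output plasmid inserts were sequenced by Illumina. The nucleation score is the DiMSum log enrichment of output over input reads, centred on the mode score of non-aggregating sequences. Sequences with under 100 input reads were excluded.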

± gives the uncertainty stated by the source.

In the case of LTTWNGCSDEC, the amyloid nucleation score was -0.557 ± 1.1.

On to PSYRCK, for which the amyloid nucleation score result was “inactive”.

Take TMVALKI: the amyloid nucleation score was -0.15 ± 0.44.

PIDFVLCSNNSSSWPVHKQN gave an amyloid nucleation score of 2.36 ± 0.11.

Take AQVEFLYNSLVHYFSIDNTG: the amyloid nucleation score result was “inactive”.

With NLNVIPDCLWFYDSRMLFFI, the amyloid nucleation score entry is “inactive”.

Turning to NIDSVLRNYSCDHRKYHSLE, the amyloid nucleation score was -0.305 ± 1.

In the case of LDYFFAAL, the amyloid nucleation score entry is “inactive”.

Regarding TRISMRLWFSGRELIEALKF, the amyloid nucleation score is -0.29 ± 0.65.

INGCNQCALP: the amyloid nucleation score was -0.408 ± 1.

In the case of TMKLLQRYYLSFFPI, the amyloid nucleation score is -1.72 ± 0.64.

IPTFSSLCLMLRTEGPRVDI showed an amyloid nucleation score of -1.05 ± 1.1.

As for SNYVY, the amyloid nucleation score is -0.161 ± 1.1.

Turning to IRPSWLKENLRMVYWYKDYP, the amyloid nucleation score is 2.53 ± 0.077.

ESSIRHRGMERRCRLHKRH returned an amyloid nucleation score of 0.546 ± 0.39.

As for KYTCLVMAL, the amyloid nucleation score turned out to be 1.11 ± 0.28.

Take ISSKITRLSPGGLVS: the amyloid nucleation score result is “inactive”.

As to MGTPTTEIGALTMGSEPFV, the amyloid nucleation score stood at 1.24 ± 0.39.

IIVIVWQGWSNGVGLHSCGA showed an amyloid nucleation score of 3.15 ± 0.063.

Substance RTLNGADFS had an amyloid nucleation score of 0.486 ± 0.8.

In turn, GRVWVW displayed an amyloid nucleation score of 0.718 ± 0.57.

As for ARSTAFMPEPSFLV, the amyloid nucleation score was 0.054 ± 0.56.

In turn, LNGYATLCYPVILSRIVYGP gave an amyloid nucleation score of 4.03 ± 0.043.

The substance LEAYVGLLCLSGRLTFSGKC came in with an amyloid nucleation score of 2.6 ± 0.1.

On to LTRGTFRIQCTLTSAWRVAR, for which the amyloid nucleation score was 4.62 ± 0.11.

In turn, SGTSLRVTSNRRFDMYGVYG gave an amyloid nucleation score of -0.766 ± 0.5.

For GGTGVAV, the amyloid nucleation score amounted to 0.183 ± 0.34.

VLTNKLQVTVCLLC gave an amyloid nucleation score of 8.448 ± 0.046.

On to VLQRCRTAVKPYQHNNCLIM, for which the amyloid nucleation score was 2.26 ± 0.11.

HVHCEIGFVRLSTRVGRWFG gave an amyloid nucleation score of 6.64 ± 0.079.

The substance LDRFLSMRLFLPYVTNLRNH displayed an amyloid nucleation score of -0.431 ± 0.64.

In turn, TMPTY registered an amyloid nucleation score of 0.709 ± 0.66.

In turn, IGLTALDFMSAFGVHLYGCG displayed an amyloid nucleation score of 0.215 ± 0.76.

Regarding VHWSWIAVAGHKDRAPGVRR, the amyloid nucleation score came out at 1.21 ± 0.3.

Substance IFYWLIHHRLMYDFFCRVLT gave an amyloid nucleation score of -0.995 ± 0.76.

Substance RFQFSICHYYDLNFS yielded an amyloid nucleation score of 0.594 ± 0.66.

For LIGVMGRCPGVLHLRSFVRD, the amyloid nucleation score was found to be 0.163 ± 0.37.

GVLMCVAVYRFVCMKRSGML had an amyloid nucleation score of 0.039 ± 0.19.

For VPQLSLQLVQRIFGFPSVIL, the amyloid nucleation score is -0.288 ± 0.41.

Substance SGINNIWYEDLTLPKWSKG gave an amyloid nucleation score of -0.401 ± 0.55.

VYRFSAAARLDWIDRVNLCN came in with an amyloid nucleation score of 0.868 ± 0.58.

With CLFWG, the amyloid nucleation score is 2.85 ± 0.11.

With ISPMWREWTWSHNWCSFPTS, the amyloid nucleation score result was “inactive”.

The substance QSGYVGNGVWVVTVVSKLMC had an amyloid nucleation score of 6.796 ± 0.037.

For FTSVRMCCILTLGISGSVRA, the amyloid nucleation score result was “inactive”.

IHVICCAGRVARCFVSEIMG: the amyloid nucleation score is 0.674 ± 0.48.

In turn, VWIGAAGGDFDSCRG came in with an amyloid nucleation score of 1.29 ± 0.43.

For the substance RHPMSKKTSYKWYVVLTQCR, the amyloid nucleation score came out at 0.554 ± 0.31.

The substance QPISVMSNLSEIIWTYSMRA yielded an amyloid nucleation score of -0.002 ± 0.63.

As to FQSHWVLERGI, the amyloid nucleation score was -0.901 ± 1.

GETLSTDYLWQPTHA gave an amyloid nucleation score of 0.877 ± 0.58.

Turning to VPFGNESWLYTR, the amyloid nucleation score was -1.06 ± 0.64.

As to RSSVWGMRELIERKNTSGAW, the amyloid nucleation score came to 1.49 ± 0.19.

Turning to DYLKRDVSTFSLS, the amyloid nucleation score was -0.021 ± 0.29.

In the case of CHRNFITCLYAMYSELVLVL, the amyloid nucleation score came out at 0.648 ± 0.54.

Take TLSKYCEDKFEWFCIAVICR: the amyloid nucleation score was 6.95 ± 0.04.

YLGDTEQECAF showed an amyloid nucleation score of -1.37 ± 0.3.

In turn, LGTVRYLS displayed an amyloid nucleation score of 0.399 ± 0.41.

For the substance SSCISHGGRK, the amyloid nucleation score was -0.546 ± 0.45.

Take ALNAG: the amyloid nucleation score was determined as 1.11 ± 0.2.

GVARESRAGS returned an amyloid nucleation score of 4.96 ± 0.066.

In the case of GRLSWFS, the amyloid nucleation score was -0.624 ± 0.49.

In turn, HQVSGSDWPRSDYLRCLTIA displayed an amyloid nucleation score of 1.82 ± 0.19.

As to YCNIPNRPVSKALRNHLS, the amyloid nucleation score result is “inactive”.

Regarding NEQIW, the amyloid nucleation score was found to be 0.023 ± 0.39.

For RCSVGVAWEVGKYVIKIRGF, the amyloid nucleation score is -1.08 ± 0.62.

As for GASLLFALSLSYKFHQYLVD, the amyloid nucleation score is -1.44 ± 0.49.

The substance KTIFGGWSARSGNISMPSWM yielded an amyloid nucleation score of 0.267 ± 0.54.

YSGFIMWYLFDDTAQIP: the amyloid nucleation score is -0.781 ± 1.1.

Substance SRSLWYVLNYYV returned an amyloid nucleation score of 0.062 ± 0.29.

On to DSLNCGSRCKSAGDSNRWSL, for which the amyloid nucleation score came out at 0.11 ± 0.65.

Substance NHYSSVMKVFCDRFTSAIGG registered an amyloid nucleation score of -0.946 ± 0.63.

Take HHSWRYRLYVSIDSSFCLGA: the amyloid nucleation score entry is “inactive”.

In turn, ITVYLRTRFLGFGFEYE yielded an amyloid nucleation score of -0.536 ± 1.

PFMCRLIYSELNDYIIELDE displayed an amyloid nucleation score of -0.081 ± 0.5.

Substance RSVFDLMPRLYDYATNHLSY yielded an amyloid nucleation score of -0.057 ± 0.34.

In the case of IFHYAFC, the amyloid nucleation score was 10.09 ± 0.061.

Substance LMISCSYICSVVDYHLMGGS came in with an amyloid nucleation score of 3.55 ± 0.06.

On to VLQDMYYKSVKKLQARSKDF, for which the amyloid nucleation score entry is “inactive”.

LDILIAQALEVFSDQYCNY displayed an amyloid nucleation score of -0.992 ± 0.42.

The substance ICAGSGFRKGRINPELRVHW had an amyloid nucleation score of -1.24 ± 0.75.

In turn, AWENYYSGLVNLLAASACIV showed an amyloid nucleation score of -0.163 ± 0.79.

MGAAITSGEGYDLRLLIDNS came in with an amyloid nucleation score of 0.208 ± 1.1.

Consider TCLGSRWLT, for which the amyloid nucleation score amounted to 0.653 ± 0.33.

As to RERLL, the amyloid nucleation score is -0.114 ± 0.51.

IIVCVSGIYLSMSQ: the amyloid nucleation score was 6.007 ± 0.035.

Turning to WSFDIAVTAR, the amyloid nucleation score entry was “inactive”.

Substance WLEDAS gave an amyloid nucleation score of -0.557 ± 1.1.

Regarding NSNSCAHLTKTRYKSTVRYT, the amyloid nucleation score is 2.1 ± 0.23.

In turn, SGYVRCLSAYDFLVNGLPML yielded an amyloid nucleation score of 0.519 ± 0.31.

YFSQQSEGSALCVLKHWVKS had an amyloid nucleation score of 0.253 ± 0.42.

In the case of LRVKKYTDFHELEVGLFFWL, the amyloid nucleation score result was “inactive”.

RIVQYIELRFTYQRKYNGAG: the amyloid nucleation score turned out to be 3.02 ± 0.057.

In turn, ACANYGRVVWSSWDW gave an amyloid nucleation score of 0.388 ± 0.39.

Regarding IGHLPMMVLT, the amyloid nucleation score was 1.42 ± 0.36.

On to MISRSFPQSVFFLTDLWS, for which the amyloid nucleation score was -0.667 ± 0.31.

SPVLIAYQGMAKDWGLVING: the amyloid nucleation score was determined as 0.139 ± 0.56.

VLSNSEYVFTNR: the amyloid nucleation score is -0.5 ± 0.28.

LRAHFWGDD: the amyloid nucleation score is 0.335 ± 0.31.

On to YFTGSPVVHRLLSYNLFLRF, for which the amyloid nucleation score was 5.726 ± 0.039.

The substance CHACLWRETRVRTCVSAEHH showed an amyloid nucleation score of 1.65 ± 0.35.

For the substance GALNISLDTLMVSRCYFHSP, the amyloid nucleation score was 0.945 ± 0.31.

As to YVDAEARLFCGLLGLVFGDL, the amyloid nucleation score turned out to be 5.47 ± 0.097.

Take HEPNSYHPRVGLIQELWHCG: the amyloid nucleation score is 0.473 ± 0.45.
